Measurements as given in paper PMC7722742, “Structure of native glycolipoprotein filaments in honeybee royal jelly” (Nature Communications, 2020).

B1: major royal jelly protein 1 (natural protein, Apis mellifera, UniProt O18330 20-432, looked up)
chain: NILRGESLNKSLPILHEWKFFDYDFGSDERRQDAILSGEYDYKNNYPSDIDQWHDKIFVTMLRYNGVPSSLNVISKKVGDGGPLLQPYPDWSFAKYDDCSGIVSASKLAIDKCDRLWVLDSGLVNNTQPMCSPKLLTFDLTTSQLLKQVEIPHDVAVNATTGKGRLSSLAVQSLDCNTNSDTMVYIADEKGEGLIVYHNSDDSFHRLTSNTFDYDPKFTKMTIDGESYTAQDGISGMALSPMTNNLYYSPVASTSLYYVNTEQFRTSDYQQNDIHYEGVQNILDTQSSAKVVSKSGVLFFGLVGDSALGCWNEHRTLERHNIRTVAQSDETLQMIASMKIKEALPHVPIFDRYINREYILVLSNKMQKMVNNDFNFDDVNFRIMNANVNELILNTRCENPDNDRTPFKISIHL
modifications: N-linked glycans at Asn28, Asn144 and Asn177 (modelled: one NAG at Asn28, two NAG at Asn144, two NAG plus a BMA at Asn177)
notes: major royal jelly protein 1 (MRJP1), honeybee Apis mellifera, native glycoprotein from royal jelly; the final model holds residues 20-431; Native protein; in the filament it stands with apisimin, 24-methylenecholesterol and further unassigned lipids; also called MRJP1; MRPJ1; source: purified from commercially available royal jelly as RJ filaments (ammonium sulfate precipitation, SEC at pH 4.0)
B2: apisimin (natural protein, Apis mellifera, UniProt Q8ISL8 25-78, looked up)
chain: KTSISVKGESNVDVVSQINSLVSSIVSGANVSAVLLAQTLVNILQILIDANVFA
notes: apisimin, small (5 kDa) royal jelly protein, honeybee Apis mellifera, native; the final model holds residues 33-76; Native protein, co-purified with MRJP1 in the filaments; also called apimisin; source: purified from commercially available royal jelly as RJ filaments (ammonium sulfate precipitation, SEC at pH 4.0)

Key:
[1] = molecular target: T1, MRJP1_4/apisimin4 hetero-octamer (native royal jelly filament) (Apis mellifera, UniProt O18330+Q8ISL8); assay: cryo-EM helical reconstruction, […] A; type: binding; details: pH 4.0; native co-purified lipid, 8 per MRJP1_4/apisimin4 unit; built starting from crystal structure PDB 5yyl
T1 construct: gene Mrjp1; native, purified from commercial royal jelly (Bio-Gelee Royale) at pH 4.0; N-glycosylated (Asn28, Asn144, Asn177); signal peptides removed; N-termini NILRGE (MRJP1) and KTSISV (apisimin); model residues 20-431 of MRJP1 and 33-76 of apisimin; 4:4 hetero-octamers stacked into helical filaments
T1 sequence (O18330 20-432): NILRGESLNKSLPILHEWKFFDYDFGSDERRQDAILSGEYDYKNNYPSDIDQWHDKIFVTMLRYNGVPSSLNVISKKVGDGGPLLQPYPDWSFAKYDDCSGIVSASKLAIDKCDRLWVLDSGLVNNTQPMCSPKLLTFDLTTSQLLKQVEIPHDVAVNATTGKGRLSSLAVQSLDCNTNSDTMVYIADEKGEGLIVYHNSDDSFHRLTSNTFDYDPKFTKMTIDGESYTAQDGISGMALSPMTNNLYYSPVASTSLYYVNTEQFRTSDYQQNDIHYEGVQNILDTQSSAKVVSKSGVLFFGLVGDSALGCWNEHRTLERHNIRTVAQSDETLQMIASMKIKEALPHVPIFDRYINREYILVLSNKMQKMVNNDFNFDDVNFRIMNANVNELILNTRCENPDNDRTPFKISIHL
T1 sequence (Q8ISL8 25-78): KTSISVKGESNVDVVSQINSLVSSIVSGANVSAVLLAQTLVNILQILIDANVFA

[2] = molecular target: the molecule itself; assay: cryo-EM structure; real-space helical reconstruction of native RJ filaments purified at pH 4.0 (10 mM formic acid-NaOH pH 4.0, 150 mM NaCl), graphene oxide-coated grids, 3.5 Å
apisimin = molecular target: B2; assay: quantitative Edman sequencing; purified RJ filaments (SEC fractions above 500 kDa, pH 4.0); six degradation cycles; molar ratio of the MRJP1 and apisimin residues; details: both partners purified
[3] = molecular target: B1; assay: cryo-EM structure; real-space helical reconstruction of native RJ filaments purified at pH 4.0 (10 mM formic acid-NaOH pH 4.0, 150 mM NaCl), graphene oxide-coated grids, 3.5 Å; details: both partners purified

Molecule	cryo-EM helical reconstruction, 3.5 A [1]	binding result [2]	stoichiometry N (apisimin)	binding result [3]
C=C(CC[C@@H](C)[C@H]1CC[C@H]2[C@@H]3CC=C4C[C@@H](O)CC[C@]4(C)[C@H]3CC[C@]12C)C(C)C [24-methylenecholesterol]	Apisimin is colored in red, 24-methylenecholesterol in blue, and N-glycans in silver.	–	–	–
B1	–	binds	1.15 ± 0.32 molar ratio MRJP1/apisimin	–
B2	–	binds	–	binds
